The results in this text go back to article PMC4231766.

The subject of this data set is 340R WT (MBP fusion) (Invertebrate iridescent virus 6 (IIV-6)). The experiment in a line: EMSA. The settings on record: EMSA 1 h at room temperature, 5 ng long dsRNA or 1 nM siRNA/19-nt dsRNA; 6% or 12% native PAGE; binding buffer not given (as ref 11); protein dialysis/storage ….

As usually defined, the Kd is the free concentration of one partner at which half of the binding sites on the other are occupied at equilibrium, for simple one-to-one binding. Low values mean tighter binding, high ones weaker binding. Take 21-nt siRNA duplex: the Kd is 718 nM. For the substance 19-nt blunt dsRNA, the Kd turned out to be 1170 nM. The substance 126-nt long dsRNA displayed a dissociation constant Kd of 139 nM.
